B1: TFG: fusion polypeptide: TRAP at N-terminus and PC-Gla at C-terminus of short ferritin monomer fragment, forms nanocage (apparently SEQ ID NO: 14) (protein)
chain: MGGTTFLLRNASGHMSSQIRQNYSTDVEAAVNSLVNLYLQASYTYLSLGFYFDRDDVALEGVSHFFRELAEEKREGYERLLKMQNQRGGRIFLQDIKKPAEDEWGKTPDAMKAAMALEKKLNQALLDLHALGSARTDPHLCDFLETHFLDEEVKLIKKMGDHLTNLHRLGGGSEFVDGGGSGTSANSFLEELRHSSLERECIEEICDFEEAKEIFQNVDDTLAFWSKHVLEHHHHHH
modifications: Fusion polypeptide (1)
B2: TFMG: as TFG with an MMP-2 cleavable linker (GPLGLAG) between ferritin fragment C-terminus and PC-Gla (apparently SEQ ID NO: 15) (protein)
chain: MGGTTFLLRNASGHMSSQIRQNYSTDVEAAVNSLVNLYLQASYTYLSLGFYFDRDDVALEGVSHFFRELAEEKREGYERLLKMQNQRGGRIFLQDIKKPAEDEWGKTPDAMKAAMALEKKLNQALLDLHALGSARTDPHLCDFLETHFLDEEVKLIKKMGDHLTNLHRLGGGSEFVDGGGSGTSGPLGLAGANSFLEELRHSSLERECIEEICDFEEAKEIFQNVDDTLAFWSKHVLEHHHHHH
modifications: Fusion polypeptide (2)

Key:
[1] = system: PAR-1; assay: PAR-1 cleavage assay in transfected HUVECs (ALP activity); type: cell-based; settings: FIG. 13
Method: HUVECs at 90% confluence in 24-well plates were transiently transfected with pRc/RSV containing ALP-PAR-1-TF cDNA in antibiotic-free Opti-MEM medium using Lipofectamine (Invitrogen) according to the manufacturer's instruction. On the following day, cells were washed and incubated in serum-free medium for 5 h. Cells were then incubated for an additional hour with thrombin, TRAP, TFG, or TFMG. Conditioned medium was collected and centrifuged to remove cellular debris. Supernatant was collected, and ALP (alkaline phosphatase) activity was measured using EnzoLyte™ p-nitrophenyl phosphate alkaline phosphatase assay kit (AnaSpec, San Jose, Calif.) according to the manufacturer's instructions.

[2] = molecular target: T1, EPCR (Mus musculus, UniProt Q64695); assay: histological analysis of EPCR binding in vivo (mouse vena cava); settings: injected intravenously, FIG. 11
T1 construct: from tissue; host or cells: mouse vena cava
T1 sequence (Q64695 18-242): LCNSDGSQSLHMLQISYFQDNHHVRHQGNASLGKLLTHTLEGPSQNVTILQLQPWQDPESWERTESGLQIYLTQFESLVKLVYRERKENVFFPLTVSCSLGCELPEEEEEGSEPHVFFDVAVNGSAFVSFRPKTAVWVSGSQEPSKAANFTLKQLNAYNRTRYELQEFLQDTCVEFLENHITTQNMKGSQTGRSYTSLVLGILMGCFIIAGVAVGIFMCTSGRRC
Method: Twenty-four hours prior to CLP surgery, fluorescence labeled-PC-Gla, TFG, and TFMG (200 nM/mouse) was intravenously injected into the mice, respectively. After 24 h, mouse vena cava was enucleated and fixed in visikol for 24 h. Subsequently, vena cava was embedded in optimum cutting temperature (OCT) compound (Tissue Tek) at −80° C. Consecutive sections were incubated with anti-EPCR antibody (Santa Cruz, Calif.), anti-rabbit Alexa 488 (green), anti-CD31 antibody, and anti-rabbit Alexa 350 (blue), and observed by confocal microscopy at 63× magnification (TCS-SP5, Leica microsystem, Germany).

[3] = molecular target: T2, soluble EPCR (sEPCR) (Homo sapiens, UniProt Q9UNN8); assay: solid-phase ELISA for binding affinity to soluble EPCR; settings: FIG. 9, read-out: Kd(app) for the interaction with sEPCR
T2 construct: 96-well flat microtiter plates were coated with soluble EPCR
T2 sequence (Q9UNN8 18-210 limits assumed): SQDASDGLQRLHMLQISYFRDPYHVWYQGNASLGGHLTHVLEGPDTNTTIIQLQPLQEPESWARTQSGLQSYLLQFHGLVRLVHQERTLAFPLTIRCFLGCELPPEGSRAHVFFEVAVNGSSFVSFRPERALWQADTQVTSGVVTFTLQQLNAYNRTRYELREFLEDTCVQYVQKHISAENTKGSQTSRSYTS
Method: 9. Enzyme-Linked Immunosorbent Assays (ELISA) for Evaluating EPCR (Endothelial Protein C Receptor) Binding Affinity
To evaluate the interaction of the wild-type PC, PC-Gla peptides, TFG, and TFMG with EPCR, 96-well flat microtiter plates were coated with soluble EPCR in 20 mM carbonate-bicarbonate buffer (pH 9.6) containing 0.02% sodium azide, overnight at 4° C. After the plates were washed three times in TBS buffer (0.1 M NaCl, 0.02 M Tris-HCl, pH 7.4) containing 0.05% Tween 20, the plates were incubated with wild-type PC, PC-Gla peptides, TFG, and TFMG (7-1000 nM) diluted in the buffer for 1 h. After the plates were rinsed again, they were incubated with a goat anti-protein C polyclonal antibody (1:1000) for 1 h. Then, the plates were washed and incubated with rabbit anti-goat IgG (KPL, MD, 1:1000) for 1 h. After washing, the plates were incubated with 2,2′-azino-di(3-ethylbenzthiazoline-6-sulfonate) (ABTS; KPL, Gaithersburg, Md.). Colorimetric analysis was performed by measuring absorbance values at 405 nm.

[4] = molecular target: T3, MMP-2 (Homo sapiens, UniProt P08253); assay: cleavage of nanocaged TFMG by activated MMP-2; type: biochemical; settings: p-aminophenylmercuric acetate-activated MMP-2, FIG. 6-8
T3 sequence (P08253 110-660): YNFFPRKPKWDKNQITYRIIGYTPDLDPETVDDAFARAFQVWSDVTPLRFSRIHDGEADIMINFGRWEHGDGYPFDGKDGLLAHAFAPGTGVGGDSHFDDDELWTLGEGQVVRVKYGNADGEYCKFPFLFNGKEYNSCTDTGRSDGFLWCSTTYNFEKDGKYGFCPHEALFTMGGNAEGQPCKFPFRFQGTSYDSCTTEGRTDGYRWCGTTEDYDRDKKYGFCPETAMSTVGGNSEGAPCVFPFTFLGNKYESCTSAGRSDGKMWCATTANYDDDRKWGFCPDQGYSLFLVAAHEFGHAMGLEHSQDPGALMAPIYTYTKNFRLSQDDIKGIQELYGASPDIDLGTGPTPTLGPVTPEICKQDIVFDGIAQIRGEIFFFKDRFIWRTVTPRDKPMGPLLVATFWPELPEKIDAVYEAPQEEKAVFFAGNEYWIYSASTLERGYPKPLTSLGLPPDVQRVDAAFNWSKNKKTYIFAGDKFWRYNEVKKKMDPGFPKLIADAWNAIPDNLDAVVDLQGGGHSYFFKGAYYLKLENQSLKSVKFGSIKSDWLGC
Method: To evaluate whether TFMG could be selectively cleaved by MMP2, TFMG was incubated with APMA-mediated activated MMP-2 in PBS at 37° C. for 3 h. The cleaved fragments of TFMG were detected by MALDI-ToF.

| Molecule | PAR-1 cleavage activity (ability to activate PAR-1) [1] | in vivo binding by immunohistochemistry [2] | Kd [3] [nM] | release of PC-Gla by linker cleavage with MMP-2 [4] |
| --- | --- | --- | --- | --- |
| B1 | strong similarities | colocalized with EPCR and CD31 |  |  |
| B2 | strong similarities | colocalized with EPCR and CD31 | 307 | continuously released PC-Gla |

Source: patent US10513545B2, “Fusion polypeptide in which anti-inflammatory polypeptide and ferritin monomer fragment are bound and pharmaceutical composition for preventing and treating inflammatory diseases, containing same as active ingredient” (KYUNGPOOK NATIONAL UNIVERSITY INDUSTRY-ACADEMIC COOPERATION …, priority 2015, dated 2019)
